Positions count from the first letter of the chain named. Marks after values point to notes of the source that are not given here.
B1: ChAb13-CZ (conjugate)
VH: QVQLKESGPGLVQPSQTLSLTCTVSGFSLSSYGVIWVRQPPGKGLEWMGIIWANGNTNYNSALKSRLSISRDTSKSQVYLKMNSLQTEDTATYYCARHYYDGTHYYGYFDYWGQGVMVTVSS
VL: DTVMTQTPSSQAVSAGEKVTMSCKSSQSLLYSENKKKYLAWYQQKPGQSPKLLIYWASTRESGVPDRFIGSGSGTDFTLTISSVQAEDLAVYYCQQYYNFPYTFGAGTKLELK
B2: Ab3-CZ (conjugate)
VH: EVKLVESGGGLVQPGNSLRLSCATSGFTFIDYYMSWVRQSPGKALEWLGFIRNKANGYTTEYSASVKGRFTISRDNSQSILYLQMDTLRAEDSATYYCTRDRPAWFVYWGQGTLVTVSA
VL: DIVMSQSPSSLAVSVGEKVTMSCKSSQSLLYSSNQKNYLAWYQQKPGQSPKLLIYWASTRESGVPDRFTGSGSGTDFTLTFSSVRAEDLAVYYCQQYYSYPYTFGGGTKLEIK
B3: ChAb5-CZ (conjugate)
VH: EVKLVESGGGLVQPGGSLRLSCATSGFTFTDYYMTWVRQPPGKALEWLGFIRNKANGYTTEYSASVKGRFTISRDNSLSILYLQMNTLRAEDSATYYCARASYVNSEGWFAYWGQGTLVTVSA
VL: B2 VL with P46L, F81I, R85K, Q96H, Y102R
B4: Ab5-CZ (conjugate)
VH: B3 VH
VL: B2 VL with P46L, F81I, R85K, Q96H, Y102R
B5: ChAb3-CZ (conjugate)
VH: B2 VH
VL: B2 VL
B6: ChAb3- CZ-Broad DAR (conjugate)
VH: B2 VH
VL: B2 VL
B7: ChAb3- CZ-DAR4 (conjugate)
VH: B2 VH
VL: B2 VL
B8: ChAb3- CZ-DAR2 (conjugate)
VH: B2 VH
VL: B2 VL
B9: ChAb11-CZ (conjugate)
VH: EVQLVESGGGLVQPGRSLKLSCAASGFTFSDYAMAWVRQAPKKGLEWVAGIIYDGRGTYYRDSVKGRFTISRDNAKSTLYLQMDSLRSEDTATYYCARQGDGTYYYWGYFDYWGQGVMVTVSS
VL: DIVMTQSPSSLAVSAGETVTINCRSSQSLLSSGNQKNYLAWYQQKPGQSPKLLIYWASTRQSGVPDRFIGSGSGTDFTLTISSVQAEDLAIYYCQQYYDTPYTFGAGTKLELK
B10: ChAb15-CZ (conjugate)
VH: B9 VH with A33T, G50T, G100S
VL: B9 VL with R24K, S31F, S82R, T100S
B11: ChAb12-CZ (conjugate)
VH: B9 VH with G50S, Y109S
VL: B9 VL with R24K, Y93H
B12: ChAb8-CZ (conjugate)
VH: B9 VH with G50S
VL: B9 VL with R24K, S82N

Assays:
[1] = test system: NCI-H146 (human small cell lung cancer) xenograft; experiment: NCI-H146 xenograft tumor growth inhibition; type: in vivo, SCID-bg mice; conditions: for Growth Inhibition TGImax (%): 10 mg/kg/day IP QDx1; for Response Frequency CR (%): 10 mg/kg/day IP QDx1, complete responders; for Response Frequency OR (%): 10 mg/kg/day IP QDx1, overall responders; for Response Frequency PR (%): 10 mg/kg/day IP QDx1, partial responders; for Growth Inhibition TGD (%): 10 mg/kg/day IP QDx1, tumor growth delay to 1 cm^3
Protocol: The in vivo efficacy of anti-CD98 hybridoma mAb conjugates were tested using Ab3-CZ and Ab5-CZ as examples in NCI-H146 (human small cell lung cancer) xenograft model. The two anti-CD98 hybridoma mAb, Ab3-CZ and Ab5-CZ, were conjugated to the Bcl-xL inhibitor synthon CZ according to Method A. NCI-H146 was obtained from the American Type Culture Collection (ATCC, Manassas, Va.). The cells were cultured as monolayers in RPMI-1640 culture media (Invitrogen, Carlsbad, Calif.) that was supplemented with 10% Fetal Bovine Serum (FBS, Hyclone, Logan, Utah). To generate xenografts, 5×10^6 (NCI-H146) viable cells were inoculated subcutaneously into the right flank of immune deficient female SCID-bg mice (Charles River Laboratories, Wilmington, Mass.). The injection volume was 0.2 mL and composed of Matrigel (BD, Franklin Lakes, N.J.). Tumors were size matched at approximately 212 mm^3. Antibodies and conjugates were formulated in phosphate buffered saline, pH 7.2 and injected intraperitoneally. […] Therapy began within 24 hours after size matching of the tumors. Mice weighed approximately 21 g at the onset of therapy. Tumor volume was estimated two to three times weekly. Measurements of the length (L) and width (W) of the tumor were taken via electronic caliper and the volume was calculated according to the following equation: V=L×W^2/2. Mice were euthanized when tumor volume reached 3,000 mm^3 or skin ulcerations occurred. Eight mice were housed per cage. Food and water were available ad libitum. Mice were acclimated to the animal facilities for a period of at least one week prior to commencement of experiments. Animals were tested in the light phase of a 12-hour light: 12-hour dark schedule (lights on at 06:00 hours). Anti-CD98 conjugates (10 mg/kg) were administered as a single dose (QD×1) intraperitoneally. A human IgG control antibody (MSL109, a humanized IgG1 antibody that binds to cytomegalovirus (CMV) glycoprotein H) was used as a negative control agent.
To refer to efficacy of therapeutic agents, parameters of amplitude (TGImax), durability (TGD) and response frequency (CR, PR, OR) of therapeutic response are used. The efficacy of inhibition of NCI-H146 xenografts growth with CD98-targeted ADCs is illustrated by Table 6, below. In the tables, to refer to efficacy, parameters of amplitude (TGImax) and durability (TGD) of therapeutic response are used. TGImax is the maximum tumor growth inhibition during the experiment. Tumor growth inhibition is calculated by 100*(1−Tv/Cv) where Tv and Cv are the mean tumor volumes of the treated and control groups, respectively. TGD or tumor growth delay is the extended time of a treated tumor needed to reach a volume of 1 cm^3 relative to the control group. TGD is calculated by 100*(Tt/Ct−1) where Tt and Cr are the median time periods to reach 1 cm^3 of the treated and control groups, respectively. Distribution of the response amplitude in a specific group is given by the frequency of complete responders (CR), partial responders (PR), and overall responders (OR). CR is the percentage of mice within a group with a tumor burden of 25 mm^3 for at least three measurements. PR is the percentage of mice within a group with a tumor burden larger than 25 mm^3 but less than one-half of the volume at onset of treatment for at least three measurements. OR is the sum of CR and PR.

[2] = test system: EBC-1 (human lung squamous cell carcinoma) xenograft; experiment: EBC-1 xenograft tumor growth inhibition; type: in vivo; conditions: 10 mg/kg/day IP QDx1, SCID-bg mice
[3] = Percent aggregates of ADC by size exclusion chromatography; type: physicochemical; conditions: chAb3-CZ DAR2, DAR4 and broad DAR species (Table 12)
Source text: Procedures for DAR and percent aggregate determination are described above in Example 5.

Molecule	Growth Inhibition TGImax (%) [1]	Response Frequency CR (%) [1] [%]	Response Frequency OR (%) [1] [%]	Response Frequency PR (%) [1] [%]	Growth Inhibition TGD (%) [1]	Growth Inhibition TGD (%) [2]	Growth Inhibition TGImax (%) [2]	Response Frequency CR (%) [2] [%]	Response Frequency OR (%) [2] [%]	Response Frequency PR (%) [2] [%]	% Aggregates by SEC [3] [%]
MSL109: "a humanized IgG1 antibody that binds to cytomegalovirus (CMV) glycoprotein H", "used as a negative control agent" [reference compound]	0%	0	0	0	0%						
B1						47* %	61* %	0	0	0	
B2	79* %	0	50	50	81* %						
B3						61* %	70* %	0	0	0	
B4	76* %	0	0	0	76* %						
B5						37* %	54* %	0	0	0	
B6											12.2
B7											13.8
B8						32* %	55* %	0	0	0	0.5
B9						37* %	55* %	0	0	0	
B10						74* %	70* %	0	0	0	
B11						74* %	76* %	0	25	25	
B12						42* %	56* %	0	0	0	

Source: patent US20230135723A1, “ANTI-CD98 ANTIBODIES AND ANTIBODY DRUG CONJUGATES” (AbbVie Inc., priority 2016, published 2023)
